Test results: patent US12618835B2, “Multiplex microelectrode array for detection of proteases as biomarkers” (Kansas State University Research Foundation, priority 2021, dated 2026)
Where no end group is shown, it is not given here. [ ]: non-standard residue; d: D form. The star is where a group is joined. aminomethylferrocene = [Fe+2].c1cc[c-](CN*)c1.c1cc[cH-]c1; Ava = NCCCCC(=O)O

Key:
cathepsin B = cathepsin B (Homo sapiens, UniProt P07858); design: purchased R&D Systems Inc. (Minneapolis, MN); conditions: previous finding; cited from earlier work
[1] = target: T1, recombinant human cathepsin B (rhCB) (Homo sapiens, UniProt P07858); experiment: Electrochemical (ACV) proteolysis of peptide-Fc on Au MEA by activated rhCB in different buffers, Example 3; format: biochemical
T1 construct: purchased R&D Systems Inc. (Minneapolis, MN)
Method: Gold MEA Functionalization. The diced Au MEA chip was sonicated in acetone for 5 min to remove the photoresist protection layer, followed by rinsing with methanol and subsequently with isopropanol for 30 seconds. The Au MEA was then rinsed with deionized water and blow-dried with N2. Prior to use, the Au MEA chip was mounted in a home-made electrochemical cell described in our previous report and electrochemically cleaned by cycling voltammetry (CV) between −0.60 to 0.70 V in 0.10 M phosphate buffer (0.038 M NaH2PO4 and 0.061 M Na2HPO4, pH=7.4) vs. a mercury/mercurous sulfate reference electrode (MSE) filled with a saturated K2SO4 solution (CH Instruments, Austin, TX). The cleaned Au MEA was then rinsed with deionized water and blow-dried with N2. All electrochemical protease detection measurements in this study used an in-house synthesized hexapeptide H-15 attached with a ferrocene (Fc) redox tag, as the substrate (referred to as “peptide-Fc” in this study). […] To functionalize the MEA with this peptide-Fc substrate, the chip was first incubated in 1.0 mM 6-mercapto-1-hexanol mixed with 0.2 mM 6-mercapto-1-hexanoic acid in deionized water for 40 min to form a close-packed self-assembled monolayer (SAM) due to thiol adsorption on Au surface. The formed alkanethiol layer serves as an insulator to reduce the background current while providing a ratio of about 1:5 between —COOH and —OH groups at the top surface. The electrode was then incubated in 2.0 mM peptide-Fc substrate mixed with 0.2 g/L 1-ethyl-3-(3-dimethylaminopropyl)carbodiimide (EDC) and 0.2 g/L N-hydroxysulfosuccinimide (Sulfo-NHS) as coupling agents for 2 hours at room temperature to form amide bonds between the amine group in the peptide-Fc substrate and the carboxylic acid group on the SAM surface. […] The functionalized chip was rinsed with deionized water for 30 seconds to remove the physically adsorbed molecules.
Electrochemical Experiments. Electrochemical experiments were performed on a specially designed electrochemical cell mounted on a large copper block for temperature control by circulating thermostatic silicone liquid through the internal channels. The thermal circulator (Julabo, Allentown, PA) was set to achieve a temperature of 38.6° C. Two buffer solutions, 0.5×PB (pH=7.4) and 25 mM MES (pH=5.0), were used. In some experiments, the rhCB was activated by incubation in 25 mM MES buffer (pH=5.0) containing 5 mM DTT for 15 min. […] Fc signal on the Au surface was detected by alternating current voltammetry (ACV) with an AC frequency of 300 Hz and a voltage amplitude of 100 mV on a DC ramp from −0.45 V to 0.20 V vs. MSE. Electrochemical measurements were performed using an IVIUM n-Stat potentiostat (Eindhoven, The Netherlands), which allows measurement of up to ten independent working electrodes simultaneously versus a common MSE reference electrode and a common Pt coil counter electrode.
Principle of the Electrochemical Detection of Protease Activity. The sensing principles are described in Example 1. As shown in the cyclic voltammogram (CV) in FIG. 27, the Fc tag in the peptide-Fc functionalized at the Au microelectrode surface can be oxidized into ferrocenium (Fc^+), giving a pair of well-defined redox waves centered at −0.15 V (vs. MSE). These peaks disappeared after the peptide-Fc substrate was cleaved by proteolysis. The surface concentration of peptide-Fc substrate ΓSs can be derived from the integrated area under the oxidation peak to give ΓSs=3.1 pmol/cm^2, corresponding to an average nearest-neighbor distance of 7.9 nm between the peptide-Fc. This low density allows easy access by the protease. As further shown in FIG. 28, the weak faradaic signal can be amplified using ACV, i.e., applying an AC voltage on top of a DC potential ramp from −0.45 V to 0.20 V (vs. MSE). […]

Row | Substance | cleavage site by cathepsin B (found previously) (cathepsin B) | inverse decay constant (1/τ) ([1]; 1.0 nM activated cathepsin B, 0.2×PBS pH=7.4) | average measured activity (1/τ) ([1]; 1.0 nM activated cathepsin B, 0.5×PB pH=7.4, 8 channels) | inverse decay constant (1/τ) ([1]; 1.0 nM activated cathepsin B, 0.5×PBS pH=7.4) | inverse decay constant (1/τ) ([1]; 1.0 nM activated cathepsin B, 1×PBS pH=7.4) | activity in 0.5×PB relative to 25 mM MES buffer ([1]; 1.0 nM activated cathepsin B, same Au MEA chip) [times] | LOD of activity ([1]; 0.5×PB, 3σblank+(1/τ)blank) [s⁻¹] | LOD of cathepsin B concentration ([1]; 0.5×PB, 3σblank/m) [pM] | saturated 1/τ value ([1]; rhCB concentration above 1.0 nM, 0.5×PB)
1 | H2N-(CH2)4-CO-Pro-Leu-Arg-Phe-Gly-Ala-NH-CH2-Fc ([Ava]PLRFGA-aminomethylferrocene) [Peptide H-3] | between the Gly-Ala residues and between the Phe-Gly residues | – | – | – | – | – | – | – | –
2 | H2N-(CH2)4-CO-Pro-Leu-Ala-Phe-Val-Ala-NH-CH2-Fc ([Ava]PLAFVA-aminomethylferrocene) [Peptide H-15] | – | (7.65±0.42)×10^−4 s^−1 | (42.1±3.7)×10^−4 s^−1 | (11.44±0.64)×10^−4 s^−1 | (4.2±1.1)×10^−4 s^−1 | ~40 | 0.000849 | 57.1 ± 0.41 | about 45×10^−4 s^−1
